Here are results for 19 sequences from a protein production outcome set (Wang et al. 2014).

The data set in a line: label from the status in PepcDB records.
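Also: failed if final PepcDB status was selected cloned or expressed and not failed if soluble or beyond.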

Regarding “MAKFNQDLNEVLNQALNLALDLNHALCTTEHVLLVILEHESGEKIIGTLERDDYDKLKQILKDYLLQYVPLKSDPAKMPARSFVLLRMLKRMYASCFESVGVEELLILMLDHPDCYASKLMDSFGIARLYSNPALLDLDNHGIPNDINDNEEAPKNTPLKKYAKNLSALAQDNALDPVIGREEEILRVIEILGRRKKNNPLLIGEAGVGKTSIAEALALKIAQKEVPEFLQEYEVYSLDLALMVAGAKYRGDFEKRLKKTLKEIQQNGRIILFIDEIHTLLGTGSSNAGSLDAANILKPVLTDGSLKCLGATTFEEYRSVFEKDKAFNRRFSVIKVEEPSKEACYLILKKIAPLYEEHHQVRYDESVFKACVDLTSDYMHDKFLPDKAIELLDEVGSRKKISPKKGKKIGVDDVKETLALKLKIPKMRLSSDKKALLRNLEKSLKNKIFAQAEAISLVSNAIKIQHCGLSAKNKPVGSFLFVGPSGVGKTELAKELALNLNLHFERFDMSEYKEAHSVAKLIGSPSGYVGFEQGGLLVNAIKKHPHCLLLLDEIEKAHSNVYDLLLQVMDNATLSDNLGNQASFKHVILIMTSNVGSKDKDTLGFFSAKNTKYDKAVKELLTPELRSRIDAIVPFNALSLEDFERIVSVELDKLKALALEQDITLKFHKEVVKFIAQKSYQTTLGAREIKKIIHNEIKTKLSDILLLQSFKKPCKIACLLEKNQLVLKEIKRAQKVKENDF”, the protein production entry was “failed”. On to “MAKGPLVSFQALVENARDLVYVLDAGGAIRYASPNVRQVLGYDPEGHTRETLYALDFVHPEDRTYAEAALEDLLRHPGKTREFRLRLLDAWGRVRAVRVWGRNLLEDPAVRGIIINVHDETELEAERA”, for which the protein production entry was “failed”. With “MAKILEGPAMKLFNKWGIPVPNYVVIMDPERLAQLGEANKWLRESKLVVKAHEAIGGRFKLGLVKLGLNLEEALEASREMIGRKIGTAVVRQVIVAEMLEHDEEYYVSIAGNRDGAELLLSTKGGVDIEDNWDTVKRLFIPMDETPSVERLTEVAAEAGFTGEVAERVAKIAARLILCFDNEDAQSIEINPLVIRKSDMRFAALDAVMNVDYDARFRHADWDFKPVSEIGRPYTEAEQQIMEIDARIKGSVKFVEVPGGEIALLTAGGGASVFYSDAVVARGGTIANYAEYSGDPPDWAVEALTETICRLPKIRHIIVGGAIANFTDVKATFSGIINGLRESRSKGYLQNVTIWVRRGGPNENQGLAAIRKLQDEGFDIHVYDRSMPMTDIVDLAMNS”, the protein production result is on record as “failed”. Turning to “MAKKRESPKLIKIKDAIKLINQQVSLIGIVLEQREPKQCRNNDWICTLRIIDDTYPSPGLTVNVFSKTLEQLPQIKNHDDMILFTRIKMQTFDSGERVNAACSRWVSSFALFEGVDFVCYQCSTNFHEEEALYKSAMDDLRKVFAGCSQVIKAMQSISYRTKPCSEVFSFLREIKIGKRFDLVCRILHADEDTSAVFVWDGTDAPPASILAKRSEEDKAFSSLSVHTLLSRDVLLSFPTVGTILRVHLSSHLFYRVKPGDWVKLYHLLCEVDRGSWVIKVTSSTKVHHLAQDDRLVEKIMRIYDKRLSSKLGHISFWCFPSPPGLTETDDNCAPFVTLMDIITFPKVTCKYRCIVRVVAAYPWQVEDFCSDENRRHHQVLLTLEDSTATLEAFLCNKDAEYFWGLGFQDTETLRKKRNWLLGIRESSNFVAPRNPPWIECCILSYYTNKADPWNTRLYRIFGTRLLH”, the protein production result is given as “failed”.

With “MAKKTKAKAAKAARPKAAKTAVAKAKPAKRGVAARSVAAKPPKVAPGELVTLLDFVRYAVSRFAEAGVVFAHGTTDPIAEAVFLVGEALHLHPDQFEMFASARVTTREAAAILGLIERRIGSRLPAAYLVNKIYMRGVPFYVDERVIVPRSYIGELLDSHFDGGDTSLIDAPEAIERVLDLCTGSGCLAILAAYAFPNATVDAVDLSKDALAVATRNVAEHRLDDRVSLYHGDLFGPLGDERYDLIITNPPYVDADGMASLPAECRAEPAMAFDGGDDGLTIIRRILAEAKHHLNPDGGLLCEVGRCRPQIEDEFPQLPLLWLDSEDSEAEVFWIAAADL”, the protein production result is recorded as “failed”. As to “MAKLAGQKVRIGGWVKTGRQQGKGTFAFLEVNDGSCPANLQVMVDSSLYDLSRLVATGTCVTVDGVLKIPPEGKGLKQSIELSVETVIAVGTVDP”, the protein production entry is “not failed”. Turning to “MAKNAPRFVCQACGAVYPRWMGRCEACGEWNSIAEEAPAEALPKGQTGGRGGQRLSFVSLEGVGAPPPRLLTGIPELDRVAGGGLVAGSALLIGGDPGIGKSTLLLQAVAGLARGGARSVYISGEEAIDQVRLRALRLGLEKAPVDLAAATSVRDIVATLDSGEPPDVVVIDSIQTMYLDTLDSAPGTVAQVRAGSHELIRLAKRRGFVLFLVGHVTKEGQMAGPRVMEHMVDAVIYFEGERGHPFRILRAVKNRFGATDEIGVFEMSDAGLSEVPNPSALFLAERRGNVTGSCVFAGMEGTRPMLVEIQALVGPSAPGSARRAVVGWDGGRLAMVMAVLETRCGLALGGNDVYLNVAGGLRIGEPAADLAVAAALVSSFSGVPVPPDMVVFGEIGLSGEIRAVAHGDTRLKEAAKLGFDQALMPARPRDSGKRGGPGVKEGLRMREIGHLQDLVALLAPPENAGQGQRLEHHHHHH”, the protein production entry is recorded as “not failed”. As for “MAKNDRKEPYPVINILECKACGRCLLACPKDVLFMSENLNARGYHYIEYKGEGCSGCASCYYTCPEPLALEIHIPLKKEEAE”, the entry is “failed”. As to “MAKNIQAIRGMNDYLPGETAIWQRIEGTLKNVLGSYGYSEIRLPIVEQTPLFKRAIGEVTDVVEKEMYTFEDRNGDSLTLRPEGTAGCVRAGIEHGLLYNQEQRLWYIGPMFRHERPQKGRYRQFHQLGCEVFGLQGPDIDAELIMLTARWWRALGISEHVTLELNSIGSLEARANYRDALVAFLEQHKEKLDEDCKRRMYTNPLRVLDSKNPEVQALLNDAPALGDYLDEESREHFAGLCKLLESAGIAYTVNQRLVRGLDYYNRTVFEWVTNSLGSQGTVCAGGRYDGLVEQLGGRATPAVGFAMGLERLVLLVQAVNPEFKADPVVDIYLVASGADTQSAAMALAERLRDELPGVKLMTNHGGGNFKKQFARADKWGARVAVVLGESEVANGTAVVKDLRSGEQTAVAQDSVAAHLRTLLG”, the protein production result is on record as “not failed”. Regarding “MAKPPTTIEVSPTITLPQQDPSLMGVTVSINGADQRTDQALAKVTRDNQIVTLTASRDLRFLLQEVLEKQMTARGYMVGPNGPVNLQIIVSQLYADVSQGNVRYNIATKADIAIIATAQNGNKMTKNYRASYNVEGAFQASNKNIADAVNSVLTDTIADMSQDTSIHEFIKQNARLEHHHHHH”, the protein production entry is “not failed”.

On to “MAKPVLVRNTEEMMMNLDFPTYIKVAELGCSSGQNSFLAIFEIINTINVLCQHVNKNSPEIDCCLNDLPENDFNTTFKFVPFFNKELMITNKSSCFVYGAPGSFYSRLFSRNSLHLIHSSYALHWLSKVPEKLENNKGNLYITSSSPQSAYKAYLNQFQKDFTMFLRLRSEEIVSNGRMVLTFIGRNTLNDPLYRDCCHFWTLLSNSLRDLVFEGLVSESKLDAFNMPFYDPNVQELKEVIQKEGSFEINELESHGFDLGHYYEEDDFEAGRNEANGIRAVSEPMLIAHFGEEIIDTLFDKYAYHVTQHANCRNKTTVSLVVSLTKK”, for which the protein production result was “failed”. Then “MAKPVVETPLMRQYFQIKQKHPDAILLFRVGDFYETFSEDAIVASEILGITLTRRANGAAQFVELAGFPHHALDTYLPKLVRAGKRVAICDQLEDPKKTKTLVKRGITELVTPGVSTNDNVLSHKENNFLAAVSCGKEVFGISLLDISTGEFMAGQGNADYVEKLLTNYRPKEILVERSERSRFNDLFHWSGFIFDMEDWAFSSENNRLRVLKHFDLKSLKGFGLEELSMAVTAAGAVLNYLDLTQHHQLQHITSLSRLDENRYVRLDKFTVRSLELLSPMNEGGKSLLDIIDHTITPMGARRIRQWIVFPLKDPARIQARQRVVEFFFRHPEERAIIAEHLTEIGDLERLVTKGAMGRISPREMVQLRVALQALEPIKEVCTHADEENLRTLGGKLELCKELRDKILREVMPDAPAALGRGPVIAHGVDATLDELRALAYSGKDYLIKLQQQEIERTGIPSLKVAYNNVFGYYIEVRNTHKDKVPAEWIRKQTLVSAERYITEELKEYEAKILGAEEKIAALEGQLYALLVAELQRYVAPLQQDSQAVASLDCLLSFAESARRYRFICPVVDESFTIDIKAGRHPVIEQQLPADEPYIANDIYLDTDRQQVIIVTGPNMSGKSALLRQTALISLMAQIGSFVPAESARIGMVDSIFTRVGASDNISMGESTFMVEMQEASNILNNLTPRSLVLFDELGRGTSTYDGISIAWSIVEYIHDNPKAHPRTLFATHYHELNELEGQLDRVHNFNVSAREVDGKMLFLRKLEPGGSAHSFGIQVARLGGMPHHIVQRATDILHRLEQEREKIEEEEPKTKDTKRGPSEKVKNASPTLPRDEKGRSIDGYQLSFFQLDDPVLSQIREEILDLNIDNLTPLEALNKLNDIKRILRGY”, with “failed”.

As for “MAKSKKIVFTGGGTVGHVTLNLILIPKFLKDGWEVHYIGDKHGVEHEQIDKSGLDVTFHSIATGKLRRYFSWQNMLDVFKVGWGILQSIAIIAKIRPQALFSKGGFVSVPPVIASKLLRVPVYVHESDLSMGLANKIAYKFATTMFTTFEQSKTLVKTRHVGAITKVGMTRFDNSDQLDKIKEQFDEKLKTVLFIGGSAGAKVFN”, the protein production result was “failed”. As to “MAKSRLLLSELLDQLSFALCIVRNDYVIVKVNEYFESRVIFDGETMQGKNILELFPESADYLKRKIDTALVIESSSFSSWEQKPHLLPFKSSRPVSGEEEQMYQNLEVIPIHSEDGTIEHVCLCVYDVTIQASQQQ”, the protein production entry is reported as “not failed”. For “MAKVSVYIIAYNEEQKIEPALQSVTWADEIVVIDSFSTDRTAEIARKYTDKVIQVPFEGFGKLRNSAIAATSHEWIFSLDTDERCTEEAKNEILAIIDSPDALDAYYVPRRNIFMGRWVKHSGWYPDYRQPQLFRRGAQVFTDEVVHESFTTIGRVGHMKNAIWQIPFRNFEQMISKIDRYSTLGAAKMTAKGVRPGMGKALFHALFAFFRMYILRLGILDGWAGFVIALYTFEGTFYRYAKQVEAARGWVMTRPEELER”, the protein production entry is given as “failed”. On to “MAKVVKLEPISRETTVNTNDNLLSALLDSELHVLKECGGRGMCATCHVYIKEGMESLSPINKREQRTLEVITTANATSRLACQARVLGPGVVVELPSGMYVNAVEDIESLIGRRAEQDILHPLDGRVLVEAGKLITRTMITQLKDTQVQVGQYFANTSDALEHHHHHH”, for which the protein production entry is reported as “not failed”. For “MAKYFGTDGIRGEVANSTITVEFTQKLGNAVGSLINQKNYPKFVIVGQDTRSSGGFLKFALVSGLNAAGIDVLDLGVVPTPVVAFMTVKHRAAAGFVITASHNKFTDNGIKLFSSNGFKLDDALEEEVEDMIDGDFIYQPQFKFGSYKILANAIDEYIESIYSRFAKFVNYKGKVVVDCAHGAASHNFEALLDKFGINYVSIASNPDGLNINVGCGATCVSNIKKAVKEQKADLGISLDGDADRIIIVDENGQEIDGDGILNILAQYSDICGGTNGIVGTQMTNMSYENHYRANKIPFIRSKVGDRYVLEDLVKYGYKIGGESSGHVINLNFGTTGDGLFTAIQLLAIFSQADKPVSEFKLQGELMQQTLINVPLTKKVAREDLQKVASDVNDVEKRLGNRGRVLLRPSGTEPVLRVMVEADDKSLATNEAEYLVEKVKQKLV”, the protein production result is “not failed”.

For the sequence “MAKYNEIAKKKREAKADRKRAIHGDPLTNKLKTRTPVPSVSGKRQRKLLRKWRREQKDMVEKGLVTMEDVEMASAQAASEDSKKSPRKFSVKKSLKLNKLNNKGKKKKNQKASGEKSADCMLE”, the protein production result was “failed”.

For the sequence “MALAMNRSITAITVTHNSAHTVRGALARLPPGVEIVCVDNASTDDLSTALSDLAVHRIDNPVNLGFGRACNIGAAAATGEYLLFINPDVRLGTDAVDALLQAAERYPNCGVFVPRTNTVDGRLWFREESEIDRLSGVSLPTRIRQVWGDCCVRFVNGGVFMIKRTLFLDTGGFDEDIFLYFEDDDLSYRLLQRDEPMILVSGAHAVHDIGTSVAQSTRSRIFRYRSKMRSEIHLRKKYGIAYSPFVDILRYSTKIGFYCLTLNRNRLINSLGRLIGIFDSILDRSRANRNGGYVALEHHHHHH”, the protein production entry is recorded as “not failed”.
